Two molecules from US20150361183A1 (IMPERIAL INNOVATIONS, published 2015) can be followed below.

The data set “X-ray crystal structure” concerns the molecule itself. The data set is described as follows: X-ray crystal structure. As for the experimental part: Crystals were grown using the sitting drop vapour diffusion method from 0.2 μL, protein+0.2 μL mother liquor drops at […] using protein stocks at A280=3.3 and 7.8 for CFHR112 and CFHR234 respectively. CFHR112 crystals grew from a mother liquor containing 36% PEG 2000 MME, 0.1M MES pH 6.5. CFHR234 crystals grew in 30% PEG 8000, 0.2M ammonium sulphate. Crystals were plunge cooled in liquid nitrogen following cryoprotection in 20% and 15% ethylene glycol for CFHR112 and CFHR234, respectively. Data were collected at both the ESRF and DIAMOND using the rotation method with oscillation ranges of 0.150 or 0.20 at 120 K. CFHR112 data were collected at beamline ID29 (ESRF, Grenoble) with λ=1.7105 Å. CFHR234 data were collected at beamline I04-1 (DIAMOND, UK) with λ=0.9173 Å. Data were integrated and scaled using XIA2 19 with the −3dii option to enforce usage of XDS 20 for integration and SCALA for scaling 21.

A further data set concerns the target T1, C5 (UniProt P01031 19-673; P01031 678-1676, limits assumed).
T1 construct: also called complement C5
The data set is described as follows: SPR, CFHR112 immobilised (750 RU), C5 flowed. A general note: In SPR one partner is held on a chip, and binding of the other changes the refractive index at the surface.

Data set [1] deals with the molecule itself. The data set is described as follows: MALS / size exclusion chromatography. The source says: FIG. 3(a) Generation of a CFHR5 protein lacking critical amino acids within the dimerisation motif. Monomeric CFHR5 (CFHR5^{dimer mutant}) was generated by mutating the three stabilizing amino acids (Tyr34Ser, Ser36 Tyr, Tyr39Glu) within the dimerisation motif to the corresponding amino acids within CFH. FIG. 3(b) Analysis of recombinant CFHR5 and CFHR5^{dimer mutant} using SDS PAGE gel electrophoresis. Both the wild type and dimer mutants were purified to single homogenous species as visualized by denaturing electrophoresis. FIG. 3(c) Analysis of recombinant CFHR5 and CFHR5^{dimer mutant} using size exclusion chromatography. Size exclusion chromatography was performed on a Superdex200 10/30 column (GE Healthcare) equilibrated in 50 mM Tris.HCl, pH 7.5, 150 mM NaCl at 0.4 ml/min. The column was followed in-line by an Optilab-Rex refractive index monitor (Wyatt Technologies). The CFHR5 dimer elutes early from the column (blue trace) whilst the monomeric CFHR5^{dimer mutant} protein elutes at a larger column volume (red trace). FIG. 3(d) Interaction of CFHR5 and CFHR5^{dimer mutant} with renal-bound mouse C3 in vivo.
The inventors next explored the functional consequences of dimerisation. They predicted that dimerisation would enhance ligand interaction through avidity. To test this they generated monomeric and dimeric CFHR5 proteins. […]
On the technique in general: SEC sorts molecules by how far they enter the pores of the column.

T1 sequence (P01031 19-673 limits assumed, chain 1 of 2): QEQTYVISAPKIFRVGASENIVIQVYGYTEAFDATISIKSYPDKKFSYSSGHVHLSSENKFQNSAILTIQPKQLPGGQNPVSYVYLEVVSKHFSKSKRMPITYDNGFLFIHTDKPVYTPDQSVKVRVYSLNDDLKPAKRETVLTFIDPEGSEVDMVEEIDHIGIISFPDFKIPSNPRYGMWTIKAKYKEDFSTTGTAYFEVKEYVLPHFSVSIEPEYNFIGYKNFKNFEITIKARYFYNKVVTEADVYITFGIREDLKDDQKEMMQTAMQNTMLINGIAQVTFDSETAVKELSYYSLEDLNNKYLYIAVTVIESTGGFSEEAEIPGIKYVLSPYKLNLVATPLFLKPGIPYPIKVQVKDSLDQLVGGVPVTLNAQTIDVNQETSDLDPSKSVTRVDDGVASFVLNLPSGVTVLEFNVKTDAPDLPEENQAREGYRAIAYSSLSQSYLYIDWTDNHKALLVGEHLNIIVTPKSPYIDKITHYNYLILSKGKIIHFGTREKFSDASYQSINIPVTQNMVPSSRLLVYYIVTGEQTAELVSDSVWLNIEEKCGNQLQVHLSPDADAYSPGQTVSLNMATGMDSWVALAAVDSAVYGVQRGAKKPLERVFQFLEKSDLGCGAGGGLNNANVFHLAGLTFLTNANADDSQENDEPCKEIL
T1 sequence (P01031 678-1676 limits assumed, chain 2 of 2): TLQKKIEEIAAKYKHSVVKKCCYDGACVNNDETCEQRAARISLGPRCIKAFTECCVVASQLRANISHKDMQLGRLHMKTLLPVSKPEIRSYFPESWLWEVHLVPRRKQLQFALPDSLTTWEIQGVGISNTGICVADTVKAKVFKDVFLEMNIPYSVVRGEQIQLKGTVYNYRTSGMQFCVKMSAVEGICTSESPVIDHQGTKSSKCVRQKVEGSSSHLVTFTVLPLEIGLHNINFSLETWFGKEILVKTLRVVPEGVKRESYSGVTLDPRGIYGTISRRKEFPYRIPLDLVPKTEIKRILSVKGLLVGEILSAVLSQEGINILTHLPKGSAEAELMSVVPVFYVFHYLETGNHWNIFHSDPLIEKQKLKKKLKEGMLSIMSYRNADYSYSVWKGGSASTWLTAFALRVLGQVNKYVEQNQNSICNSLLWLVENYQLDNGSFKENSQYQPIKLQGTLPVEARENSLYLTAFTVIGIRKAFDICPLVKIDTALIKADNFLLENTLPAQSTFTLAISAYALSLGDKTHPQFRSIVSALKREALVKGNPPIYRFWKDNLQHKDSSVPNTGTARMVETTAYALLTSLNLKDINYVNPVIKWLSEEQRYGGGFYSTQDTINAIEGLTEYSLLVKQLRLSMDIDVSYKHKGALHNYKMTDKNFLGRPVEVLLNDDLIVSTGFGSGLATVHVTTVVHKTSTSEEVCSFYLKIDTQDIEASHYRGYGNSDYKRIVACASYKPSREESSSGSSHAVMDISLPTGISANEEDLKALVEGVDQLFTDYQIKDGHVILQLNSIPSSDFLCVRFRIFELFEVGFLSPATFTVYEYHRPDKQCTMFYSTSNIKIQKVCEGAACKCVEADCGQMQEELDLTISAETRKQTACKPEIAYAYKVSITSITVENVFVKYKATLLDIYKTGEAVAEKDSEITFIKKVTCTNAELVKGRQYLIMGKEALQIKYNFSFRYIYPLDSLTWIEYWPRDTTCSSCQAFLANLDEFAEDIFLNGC

B1: CFHR112 (recombinant first two SCR domains of CFHR1) (other)
chain: EATFCDFPKINHGILYDEEKYKPFSQVPTGEVFYYSCEYNFVSPSKSFWTRITCTEEGWSPTPKCLRLCFFPFVENGHSESSGQTHLEGDTVQIICNTGYRLQNNENNISCVERGWSTPPKCRST
notes: Head-to-tail homodimer in crystal and in solution; also called CFHR1,2; recombinant CFHR1 domains 1 and 2
Take B1: the binding result in the data set “X-ray crystal structure” was “binds”; with C5, “no binding”.

B2: CFHR5 dimer mutant (Tyr34Ser, Ser36Tyr, Tyr39Glu) (other)
chain: EGTLCDFPKIHHGFLYDEEDYNPFSQVPTGEVFSYYCEENFVSPSKSFWTRITCTEEGWSPTPKCLRMCSFPFVKNGHSESSGLIHLEGDTVQIICNTGYSLQNNEKNISCVERGWSTPPICSFTKGECHVPILEANVDAQPKKESYKVGDVLKFSCRKNLIRVGSDSVQCYQFGWSPNFPTCKGQVRSCGPPPQLSNGEVKEIRKEEYGHNEVVEYDCNPNFIINGPKKIQCVDGEWTTLPTCVEQVKTCGYIPELEYGYVQPSVPPYQHGVSVEVNCRNEYAMIGNNMITCINGIWTELPMCVATHQLKRCKIAGVNIKTLLKLSGKEFNHNSRIRYRCSDIFRYRHSVCINGKWNPEVDCTEKREQFCPPPPQIPNAQNMTTTVNYQDGEKVAVLCKENYLLPEAKEIVCKDGRWQSLPRCVESTAYCGPPPSINNGDTTSFPLSVYPPGSTVTYRCQSFYKLQGSVTVTCRNKQWSEPPRCLDPCVVSEENMNKNNIQLKWRNDGKLYAKTGDAVEFQCKFPHKAMISSPPFRAICQEGKFEYPICE
notes: also called monomeric CFHR5
Turning to B2, in data set [1], the binding result was “no binding”.
